Results on one substance are retold here after article PMC4915166.

This test addresses gp91^phox, the catalytic subunit of NADPH oxidase (Nox2) (mouse (endogenous in mouse microglia)) (UniProt Q61093).

gp91^phox, the catalytic subunit of NADPH oxidase (Nox2) (mouse (endogenous in mouse microglia)), sequence (Q61093 whole entry): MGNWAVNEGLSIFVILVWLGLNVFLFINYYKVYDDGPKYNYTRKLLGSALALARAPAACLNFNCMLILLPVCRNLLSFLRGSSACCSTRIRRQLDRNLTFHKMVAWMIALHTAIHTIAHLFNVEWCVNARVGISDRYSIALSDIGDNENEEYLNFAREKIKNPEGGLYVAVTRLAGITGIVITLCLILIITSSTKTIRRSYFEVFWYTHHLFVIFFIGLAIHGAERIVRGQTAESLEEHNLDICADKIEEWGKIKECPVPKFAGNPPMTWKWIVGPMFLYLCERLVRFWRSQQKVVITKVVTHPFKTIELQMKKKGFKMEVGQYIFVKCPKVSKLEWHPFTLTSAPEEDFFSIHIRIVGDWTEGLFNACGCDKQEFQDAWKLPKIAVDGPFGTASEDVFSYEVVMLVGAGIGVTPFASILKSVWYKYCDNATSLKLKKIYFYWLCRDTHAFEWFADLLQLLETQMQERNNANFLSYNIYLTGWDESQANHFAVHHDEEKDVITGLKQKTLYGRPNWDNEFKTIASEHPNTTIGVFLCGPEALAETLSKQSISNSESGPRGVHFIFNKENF

In the case of “A29-V40 α-Syn peptide (WT, unlabeled, purity >98 %) (from UniProt P37840 29-40)”, the extracellular superoxide released by mouse microglia (SOD-inhibitable WST-1 reduction), 1.0 μM peptide, increase over the BSA control (% increase compared to the BSA control) was determined as 129.
